The target of this test is Homo sapiens ubiquitin (human, UniProt P0CG48 1-76). The experiment in a line: SPR. For orientation: In SPR one partner is held on a chip, and binding of the other changes the refractive index at the surface.

B1: S. cerevisiae UEV (domain or fragment)
chain: AVVNWLFKVIQPIYNDGRTTFHDSLALLDNFHSLRPRTRVFTHSDGTPQLLLSIYGTISTGEDGSSPHSIPVIMWVPSMYPVKPPFISINLENFDMNTISSSLPIQEYIDSNGWIALPILHCWDPAAMNLIMVVQELMSLLHEPPQDQAP
The molecule B1 yielded a Kd of 37.9 mM.

A word on the Kd: it is the equilibrium constant for the complex coming apart. Higher therefore signals a looser complex.

The values are drawn from paper doi:10.1101/2023.07.25.550441 (bioRxiv, 2023).
